The values that follow are results of earlier work, collected in patent US20260069559A1, “COMBINATIONS OF RXFP1 MODULATORS AND SGLT2 INHIBITORS” (ASTRAZENECA AB, priority 2022, published 2026).

For this data set the following is noted: after receiving serelaxin intravenously; fraction of patients.

For serelaxin, the “patients who experienced a significant blood pressure drop (>40 mm Hg)” value is on record as “approximately one third”.
